Experimental data from publication PMC10786891, “Massively parallel profiling of RNA-targeting CRISPR-Cas13d”.

T1: EsCas13d, nuclease-dead (Eubacterium siraeum, UniProt B0MS50, R295A;H300A;R849A;H854A)
T1 sequence: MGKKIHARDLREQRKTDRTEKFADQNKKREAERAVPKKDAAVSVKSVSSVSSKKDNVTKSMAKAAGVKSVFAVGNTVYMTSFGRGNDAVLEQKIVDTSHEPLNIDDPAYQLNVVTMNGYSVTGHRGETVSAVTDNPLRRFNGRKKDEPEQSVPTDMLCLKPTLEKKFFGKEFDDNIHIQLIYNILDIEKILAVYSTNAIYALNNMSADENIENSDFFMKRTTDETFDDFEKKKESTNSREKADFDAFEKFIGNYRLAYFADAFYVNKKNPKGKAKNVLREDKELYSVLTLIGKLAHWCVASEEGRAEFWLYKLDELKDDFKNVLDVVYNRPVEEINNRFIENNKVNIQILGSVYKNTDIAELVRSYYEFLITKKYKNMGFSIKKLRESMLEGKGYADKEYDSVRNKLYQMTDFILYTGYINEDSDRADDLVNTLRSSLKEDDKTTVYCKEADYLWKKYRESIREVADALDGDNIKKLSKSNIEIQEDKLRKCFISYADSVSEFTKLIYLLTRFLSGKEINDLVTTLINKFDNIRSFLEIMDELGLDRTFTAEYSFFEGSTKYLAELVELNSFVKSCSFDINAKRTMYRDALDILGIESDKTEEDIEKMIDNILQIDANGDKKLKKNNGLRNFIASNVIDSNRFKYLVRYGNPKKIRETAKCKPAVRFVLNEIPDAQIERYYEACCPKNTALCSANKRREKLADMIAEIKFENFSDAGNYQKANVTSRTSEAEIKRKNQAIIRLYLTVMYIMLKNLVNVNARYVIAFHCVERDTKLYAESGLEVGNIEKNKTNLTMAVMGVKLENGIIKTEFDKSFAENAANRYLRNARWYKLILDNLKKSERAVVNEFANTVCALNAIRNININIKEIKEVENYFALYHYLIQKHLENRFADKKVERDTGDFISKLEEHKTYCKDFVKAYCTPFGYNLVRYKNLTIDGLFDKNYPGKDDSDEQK


Biological target: T1, EsCas13d, nuclease-dead
Experiment: crRNA (strand 1, pre-loaded); Mg2+; 40 mM Tris-HCl pH 7.5, 150 mM NaCl, 6 mM MgCl2, 1 mM DTT, 0.1% Tween-20, 0.2 mg/ml BSA; 25 C; 10 min per concentration, then washed
Conditions: tags: His6-TwinStrep-SUMO cleaved; N-terminal SNAP kept (SNAP-Surface 488); label: 3' end held by stalled T7 RNA polymerase

Binder | Kd [nM]
target 2 MT 5'PFS UAC 3'PFS ACC (mixed) RNA 1: CACCCGUGCAAAAUUGCAGGGGUCUAAAACCUUCUCCAAAUUGUUUCAUCCU RNA 2: GGGAAUGGAUCCACAUCUACGAAUUCUACAGGAUGAAACAAUUUGGAGAAGACCAGAUCGGAAGAGCACACGU | 9.8 ± 2.1
target 2 MT 5'PFS GUU 3'PFS AAU (mixed) RNA 1: CACCCGUGCAAAAUUGCAGGGGUCUAAAACCUUCUCCAAAUUGUUUCAUCCU RNA 2: GGGAAUGGAUCCACAUCUACGAAUUCGUUAGGAUGAAACAAUUUGGAGAAGAAUAGAUCGGAAGAGCACACGU | 7.5 ± 0.6
target 2 MT 5'PFS AGC 3'PFS UGU (mixed) RNA 1: CACCCGUGCAAAAUUGCAGGGGUCUAAAACCUUCUCCAAAUUGUUUCAUCCU RNA 2: GGGAAUGGAUCCACAUCUACGAAUUCAGCAGGAUGAAACAAUUUGGAGAAGUGUAGAUCGGAAGAGCACACGU | 12.7 ± 1.8
target 2 MT 5'PFS AAU 3'PFS AGU (mixed) RNA 1: CACCCGUGCAAAAUUGCAGGGGUCUAAAACCUUCUCCAAAUUGUUUCAUCCU RNA 2: GGGAAUGGAUCCACAUCUACGAAUUCAAUAGGAUGAAACAAUUUGGAGAAGAGUAGAUCGGAAGAGCACACGU | 4.9 ± 0.5
target 2 MT 5'PFS CUC 3'PFS UCU (mixed) RNA 1: CACCCGUGCAAAAUUGCAGGGGUCUAAAACCUUCUCCAAAUUGUUUCAUCCU RNA 2: GGGAAUGGAUCCACAUCUACGAAUUCCUCAGGAUGAAACAAUUUGGAGAAGUCUAGAUCGGAAGAGCACACGU | 5 ± 0.6
target 2 MT 5'PFS ACA 3'PFS UGA (mixed) RNA 1: CACCCGUGCAAAAUUGCAGGGGUCUAAAACCUUCUCCAAAUUGUUUCAUCCU RNA 2: GGGAAUGGAUCCACAUCUACGAAUUCACAAGGAUGAAACAAUUUGGAGAAGUGAAGAUCGGAAGAGCACACGU | 7 ± 1.5
target 2 MT 5'PFS CAA 3'PFS AUA (mixed) RNA 1: CACCCGUGCAAAAUUGCAGGGGUCUAAAACCUUCUCCAAAUUGUUUCAUCCU RNA 2: GGGAAUGGAUCCACAUCUACGAAUUCCAAAGGAUGAAACAAUUUGGAGAAGAUAAGAUCGGAAGAGCACACGU | 5.5 ± 1.8
target 2 MT 5'PFS GUA 3'PFS CAU (mixed) RNA 1: CACCCGUGCAAAAUUGCAGGGGUCUAAAACCUUCUCCAAAUUGUUUCAUCCU RNA 2: GGGAAUGGAUCCACAUCUACGAAUUCGUAAGGAUGAAACAAUUUGGAGAAGCAUAGAUCGGAAGAGCACACGU | 6.3 ± 0.5
target 2 MT 5'PFS CUC 3'PFS UCA (mixed) RNA 1: CACCCGUGCAAAAUUGCAGGGGUCUAAAACCUUCUCCAAAUUGUUUCAUCCU RNA 2: GGGAAUGGAUCCACAUCUACGAAUUCCUCAGGAUGAAACAAUUUGGAGAAGUCAAGAUCGGAAGAGCACACGU | 3.3 ± 0.5
target 2 MT 5'PFS AGC 3'PFS AAC (mixed) RNA 1: CACCCGUGCAAAAUUGCAGGGGUCUAAAACCUUCUCCAAAUUGUUUCAUCCU RNA 2: GGGAAUGGAUCCACAUCUACGAAUUCAGCAGGAUGAAACAAUUUGGAGAAGAACAGAUCGGAAGAGCACACGU | 13 ± 4
target 2 MT 5'PFS AGA 3'PFS CGG (mixed) RNA 1: CACCCGUGCAAAAUUGCAGGGGUCUAAAACCUUCUCCAAAUUGUUUCAUCCU RNA 2: GGGAAUGGAUCCACAUCUACGAAUUCAGAAGGAUGAAACAAUUUGGAGAAGCGGAGAUCGGAAGAGCACACGU | 5.2 ± 0.6
target 2 MT 5'PFS AGU 3'PFS CGC (mixed) RNA 1: CACCCGUGCAAAAUUGCAGGGGUCUAAAACCUUCUCCAAAUUGUUUCAUCCU RNA 2: GGGAAUGGAUCCACAUCUACGAAUUCAGUAGGAUGAAACAAUUUGGAGAAGCGCAGAUCGGAAGAGCACACGU | 14.6 ± 1.9
target 2 MT 5'PFS CUC 3'PFS UCC (mixed) RNA 1: CACCCGUGCAAAAUUGCAGGGGUCUAAAACCUUCUCCAAAUUGUUUCAUCCU RNA 2: GGGAAUGGAUCCACAUCUACGAAUUCCUCAGGAUGAAACAAUUUGGAGAAGUCCAGAUCGGAAGAGCACACGU | 5.3 ± 0.9
target 2 MT 5'PFS AGC 3'PFS AAU (mixed) RNA 1: CACCCGUGCAAAAUUGCAGGGGUCUAAAACCUUCUCCAAAUUGUUUCAUCCU RNA 2: GGGAAUGGAUCCACAUCUACGAAUUCAGCAGGAUGAAACAAUUUGGAGAAGAAUAGAUCGGAAGAGCACACGU | 7.1 ± 1.4
target 2 MT 5'PFS GUU 3'PFS AAC (mixed) RNA 1: CACCCGUGCAAAAUUGCAGGGGUCUAAAACCUUCUCCAAAUUGUUUCAUCCU RNA 2: GGGAAUGGAUCCACAUCUACGAAUUCGUUAGGAUGAAACAAUUUGGAGAAGAACAGAUCGGAAGAGCACACGU | 11.9 ± 1.3
target 2 MT 5'PFS AGC 3'PFS AAG (mixed) RNA 1: CACCCGUGCAAAAUUGCAGGGGUCUAAAACCUUCUCCAAAUUGUUUCAUCCU RNA 2: GGGAAUGGAUCCACAUCUACGAAUUCAGCAGGAUGAAACAAUUUGGAGAAGAAGAGAUCGGAAGAGCACACGU | 9.2 ± 2
target 2 MT 5'PFS AGU 3'PFS CGU (mixed) RNA 1: CACCCGUGCAAAAUUGCAGGGGUCUAAAACCUUCUCCAAAUUGUUUCAUCCU RNA 2: GGGAAUGGAUCCACAUCUACGAAUUCAGUAGGAUGAAACAAUUUGGAGAAGCGUAGAUCGGAAGAGCACACGU | 13.9 ± 2.3
target 2 MT 5'PFS AAC 3'PFS AAU (mixed) RNA 1: CACCCGUGCAAAAUUGCAGGGGUCUAAAACCUUCUCCAAAUUGUUUCAUCCU RNA 2: GGGAAUGGAUCCACAUCUACGAAUUCAACAGGAUGAAACAAUUUGGAGAAGAAUAGAUCGGAAGAGCACACGU | 6.1 ± 1.5
target 2 MT 5'PFS AGA 3'PFS CGA (mixed) RNA 1: CACCCGUGCAAAAUUGCAGGGGUCUAAAACCUUCUCCAAAUUGUUUCAUCCU RNA 2: GGGAAUGGAUCCACAUCUACGAAUUCAGAAGGAUGAAACAAUUUGGAGAAGCGAAGAUCGGAAGAGCACACGU | 5.5 ± 0.8
target 2 MT 5'PFS ACA 3'PFS UGU (mixed) RNA 1: CACCCGUGCAAAAUUGCAGGGGUCUAAAACCUUCUCCAAAUUGUUUCAUCCU RNA 2: GGGAAUGGAUCCACAUCUACGAAUUCACAAGGAUGAAACAAUUUGGAGAAGUGUAGAUCGGAAGAGCACACGU | 9.6 ± 2.5
target 2 MT 5'PFS AGC 3'PFS AAA (mixed) RNA 1: CACCCGUGCAAAAUUGCAGGGGUCUAAAACCUUCUCCAAAUUGUUUCAUCCU RNA 2: GGGAAUGGAUCCACAUCUACGAAUUCAGCAGGAUGAAACAAUUUGGAGAAGAAAAGAUCGGAAGAGCACACGU | 13 ± 4
target 2 MT 5'PFS CGG 3'PFS UCA (mixed) RNA 1: CACCCGUGCAAAAUUGCAGGGGUCUAAAACCUUCUCCAAAUUGUUUCAUCCU RNA 2: GGGAAUGGAUCCACAUCUACGAAUUCCGGAGGAUGAAACAAUUUGGAGAAGUCAAGAUCGGAAGAGCACACGU | 11 ± 5
target 2 MT 5'PFS AAG 3'PFS UCG (mixed) RNA 1: CACCCGUGCAAAAUUGCAGGGGUCUAAAACCUUCUCCAAAUUGUUUCAUCCU RNA 2: GGGAAUGGAUCCACAUCUACGAAUUCAAGAGGAUGAAACAAUUUGGAGAAGUCGAGAUCGGAAGAGCACACGU | 4.4 ± 0.7
target 2 MT 5'PFS AAU 3'PFS AGA (mixed) RNA 1: CACCCGUGCAAAAUUGCAGGGGUCUAAAACCUUCUCCAAAUUGUUUCAUCCU RNA 2: GGGAAUGGAUCCACAUCUACGAAUUCAAUAGGAUGAAACAAUUUGGAGAAGAGAAGAUCGGAAGAGCACACGU | 3.3 ± 0.5
target 2 MT 5'PFS GCG 3'PFS CCG (mixed) RNA 1: CACCCGUGCAAAAUUGCAGGGGUCUAAAACCUUCUCCAAAUUGUUUCAUCCU RNA 2: GGGAAUGGAUCCACAUCUACGAAUUCGCGAGGAUGAAACAAUUUGGAGAAGCCGAGAUCGGAAGAGCACACGU | 12.2 ± 1
target 2 MT 5'PFS CAA 3'PFS AUC (mixed) RNA 1: CACCCGUGCAAAAUUGCAGGGGUCUAAAACCUUCUCCAAAUUGUUUCAUCCU RNA 2: GGGAAUGGAUCCACAUCUACGAAUUCCAAAGGAUGAAACAAUUUGGAGAAGAUCAGAUCGGAAGAGCACACGU | 2.4 ± 1.1
target 1 C2G,G15C (mixed) RNA 1: CACCCGUGCAAAAAUGCAGGGGUCUAAAACUGAGCGGAUAACCUCUCUAUGG RNA 2: GGGAAUGGAUCCACAUCUACGAAUUCGUACCAUAGACAGGUUAUCCGCUGACCGAGAUCGGAAGAGCACACGU | 35.8 ± 3.1
target 1 A1U,A14G (mixed) RNA 1: CACCCGUGCAAAAAUGCAGGGGUCUAAAACUGAGCGGAUAACCUCUCUAUGG RNA 2: GGGAAUGGAUCCACAUCUACGAAUUCGUACCAUAGAGGGGUUAUCCGCUCUCCGAGAUCGGAAGAGCACACGU | 17 ± 1.3
